Consider 6 molecules from US20110159598A1 (LES LABORATOIRES SERVIER, published 2011).

No end group written: not given here.

Series [1] addresses human NEMO mutant A323P, FLAG-tagged (human) (UniProt Q9Y6K9). Description: cell-based or functional assay.
In series [2] the target is K63 polyubiquitin chains. The experiment in a line: cell-based or functional assay.
For series [3], the target named is T1, CC2-LZ domain of NEMO (species and construct not stated for this assay) (Mus musculus (Mouse), UniProt O88522 251-337).
T1 construct: not shown: N-terminal histidine tag and vector residues from pET28
Description: fluorescence polarisation, N-terminally Fluorescein- or Cy5-labelled peptide, pH 7, ambient temperature, 20 mM Tris-Acetate-MES, 200 mM KCl, 0.5% Tween 20. The method, then: These measurements are carried out at pH 7 and at ambient temperature in a stringent buffer corresponding to 20 mM Tris-Acetate-MES containing 200 mM potassium chloride and 0.5% Tween 20. They are carried out by fluorescence polarisation with the aid of peptides coupled at the N-terminal with the fluorophores Fluorescein or Cy5. For forming the peptide probes of the invention, the peptides can be coupled to any kind of fluorophore.
Background: In fluorescence polarisation assays a small probe gives low polarisation when free and higher when bound to something large.

Series [4] concerns the molecule itself. The experiment in a line: gel filtration on Superdex 75, same elution profile as the wild-type CC2-LZ protein. For orientation: SEC sorts molecules by how far they enter the pores of the column.
Series [5] deals with the molecule itself. The experiment in a line: X-ray crystal structure.

The molecule “human NEMO mutant A323P, FLAG-tagged (from UniProt Q9Y6K9 1-419)” had an inhibition of TNFα-dependent activation of the NF-κB pathway (Igκ-luciferase reporter in NEMO-deficient mouse embryo fibroblasts) in series [1] of 95%.

Molecule “human NEMO mutant F312A, FLAG-tagged (from UniProt Q9Y6K9 1-419)” registered an inhibition of TNFα-dependent activation of the NF-κB pathway (Igκ-luciferase reporter in NEMO-deficient mouse embryo fibroblasts) in series [2] of 78%.

B1: peptide P8RD (peptide)
peptide: TVAQLKAQFDIHQAEHQAVKHELEKIEEDFEYIEEQLEQLQREFNKLKSG
modifications: also: N-terminal Fluorescein or Cy5
notes: Peptide probe designed from the crystal structure of the CC2-LZ domain
What is called Kd is the constant that tells how readily two partners part at equilibrium. A high value points to a looser complex. As to B1, the Kd in series [3] turned out to be 60 nM.

B2: human CC2-LZ domain of NEMO (Tax CC2-LZ, Met 215 to Glu 362) mutant F312A (other)
chain: MERQAASEEKRKLAQLQVAYHQLFQEYDNHIKSSVVGSERKRGMQLEDLKQQLQQAEEALVAKQEVIDKLKEEAEQHKIVMETVPVLKAQADIYKADAQAERQAREKLAEKKELLQEQLEQLQREYSKLKASCQESARIEDMRKRHVE
notes: also called CC2-LZ F312A; not shown: vector-derived tag of pET-28b (protein purified on Ni-NTA)
For the molecule B2, the binding result in series [4] was “binds”.

B3: peptide PH4 (peptide)
peptide: TVAQLKAQHDIYEAEHQAVEHELEKLEEELEYIKEELEQLQREFNKLSG
modifications: also: N-terminal Fluorescein or Cy5
notes: as for B1
Molecule B3 gave a dissociation constant Kd in series [3] of 170 nM.

B4: CC2-LZ domain of murine NEMO (aa 251-337), N-terminal histidine tag (other)
chain: MQLEDLRQQLQQAEEALVAKQELIDKLKEEAEQHKIVMETVPVLKAQADIYKADFQAERHAREKLVEKKEYLQEQLEQLQREFNKLK
notes: Expressed in E. coli BL21-gold (DE3); Forms a parallel coiled-coil dimer in the crystal; also called CC2-LZ protein; Nemo CC2LZ; not shown: N-terminal histidine tag from plasmid pET28
On to B4, for which the binding result in series [5] was “binds”.
